Laboratory results: patent publication US20250109201A1

What was measured:
[1] = molecular target: complement component C1q (Sigma/C1740-1 mg) (human) (UniProt P02745); test: ELISA, antibody coated, C1q in solution, OD 450 nm
[2] = molecular target: ECD-His tagged human ILT2 haplotype PE01 (human) (UniProt Q8NHL6); test: SPR, LILRA and LILRB family panel
[3] = molecular target: recombinant human LILRA1/LIR-6 (Sino Biological 17220-H08H-100) (human) (UniProt O75019); test: SPR, LILRA and LILRB family panel
[4] = molecular target: recombinant human LILRA3/ILT6 (Sino Biological 13549-H08H-100) (human) (UniProt Q8N6C8); test: SPR, LILRA and LILRB family panel
[5] = molecular target: human ILT2 extracellular and transmembrane domains expressed on CHO cells (human) (UniProt Q8NHL6); test: flow cytometry, CHO cells with low human ILT2
[6] = molecular target: human ILT2 extracellular and transmembrane domains expressed on CHO cells (human) (UniProt Q8NHL6); test: flow cytometry, CHO cells with high human ILT2
[7] = molecular target: complement component C1q (Sigma/C1740-1 mg) (human) (UniProt P02745); test: ELISA, antibody coated in a dilution series, C1q added at 2 µg/mL, biotinylated anti-C1q and streptavidin-HRP
[8] = molecular target: full-length ILT2 expressed on Jurkat cells (human) (UniProt Q8NHL6); test: cell-based or functional assay
[9] = molecular target: human ILT2 extracellular and transmembrane domains expressed on CHO cells (human) (UniProt Q8NHL6); test: flow cytometry, blocking of HLA-G-Fc-PE on CHO cells with high human ILT2

Sequence of recombinant human LILRA1/LIR-6 (Sino Biological 17220-H08H-100) (human) (O75019 17-461 limits assumed): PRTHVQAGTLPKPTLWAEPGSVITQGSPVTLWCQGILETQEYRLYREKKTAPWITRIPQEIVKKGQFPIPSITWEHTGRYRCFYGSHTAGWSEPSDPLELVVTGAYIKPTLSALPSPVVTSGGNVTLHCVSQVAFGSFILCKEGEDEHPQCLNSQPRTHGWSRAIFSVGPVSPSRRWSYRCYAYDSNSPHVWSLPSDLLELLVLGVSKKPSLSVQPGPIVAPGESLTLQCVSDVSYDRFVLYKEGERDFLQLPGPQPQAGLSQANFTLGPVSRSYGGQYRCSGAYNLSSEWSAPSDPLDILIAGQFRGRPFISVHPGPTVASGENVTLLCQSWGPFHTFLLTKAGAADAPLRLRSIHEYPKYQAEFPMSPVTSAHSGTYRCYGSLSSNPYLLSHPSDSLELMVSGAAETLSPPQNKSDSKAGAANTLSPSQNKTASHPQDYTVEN
Sequence of human ILT2 extracellular and transmembrane domains expressed on CHO cells (human) (Q8NHL6 24-482 limits assumed): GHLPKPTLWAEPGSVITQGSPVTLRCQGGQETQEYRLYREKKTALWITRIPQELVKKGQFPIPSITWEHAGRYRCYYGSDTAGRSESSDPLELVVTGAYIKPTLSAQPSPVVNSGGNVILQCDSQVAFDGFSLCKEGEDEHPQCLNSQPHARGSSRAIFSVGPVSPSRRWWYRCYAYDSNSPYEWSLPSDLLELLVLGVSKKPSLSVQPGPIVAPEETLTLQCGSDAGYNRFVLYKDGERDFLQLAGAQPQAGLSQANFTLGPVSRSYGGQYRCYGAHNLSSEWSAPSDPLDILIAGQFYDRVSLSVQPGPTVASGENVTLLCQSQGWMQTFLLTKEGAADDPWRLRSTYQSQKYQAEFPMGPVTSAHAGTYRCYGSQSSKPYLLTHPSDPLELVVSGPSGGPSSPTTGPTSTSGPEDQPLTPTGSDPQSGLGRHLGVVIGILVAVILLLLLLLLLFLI
Sequence of ECD-His tagged human ILT2 haplotype PE01 (human) (Q8NHL6 24-458): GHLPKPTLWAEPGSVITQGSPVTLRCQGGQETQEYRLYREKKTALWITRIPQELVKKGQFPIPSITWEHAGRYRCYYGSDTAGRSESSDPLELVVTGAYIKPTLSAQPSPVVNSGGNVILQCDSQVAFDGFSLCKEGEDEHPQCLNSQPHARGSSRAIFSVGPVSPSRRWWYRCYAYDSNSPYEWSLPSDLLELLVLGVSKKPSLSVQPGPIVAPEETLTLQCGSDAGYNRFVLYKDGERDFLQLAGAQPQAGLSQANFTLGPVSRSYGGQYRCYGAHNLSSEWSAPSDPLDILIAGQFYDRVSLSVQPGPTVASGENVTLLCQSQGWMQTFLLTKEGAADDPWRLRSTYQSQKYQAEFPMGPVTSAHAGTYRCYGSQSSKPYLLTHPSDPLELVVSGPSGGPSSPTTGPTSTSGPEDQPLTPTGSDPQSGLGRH
Sequence of recombinant human LILRA3/ILT6 (Sino Biological 13549-H08H-100) (human) (Q8N6C8 24-439 limits assumed): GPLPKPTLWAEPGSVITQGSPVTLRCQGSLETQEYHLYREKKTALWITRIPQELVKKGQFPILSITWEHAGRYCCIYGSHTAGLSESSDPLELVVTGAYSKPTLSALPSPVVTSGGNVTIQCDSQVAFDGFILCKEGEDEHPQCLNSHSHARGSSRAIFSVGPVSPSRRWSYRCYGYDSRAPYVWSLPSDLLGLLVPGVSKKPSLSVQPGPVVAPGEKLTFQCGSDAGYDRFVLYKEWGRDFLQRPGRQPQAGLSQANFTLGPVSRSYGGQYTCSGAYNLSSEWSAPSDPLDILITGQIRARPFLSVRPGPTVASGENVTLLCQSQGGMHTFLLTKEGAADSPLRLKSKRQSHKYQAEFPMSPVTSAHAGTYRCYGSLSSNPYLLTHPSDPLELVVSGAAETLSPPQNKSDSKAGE
Sequence of complement component C1q (Sigma/C1740-1 mg) (human) (P02745 23-245 limits assumed, chain 1 of 3): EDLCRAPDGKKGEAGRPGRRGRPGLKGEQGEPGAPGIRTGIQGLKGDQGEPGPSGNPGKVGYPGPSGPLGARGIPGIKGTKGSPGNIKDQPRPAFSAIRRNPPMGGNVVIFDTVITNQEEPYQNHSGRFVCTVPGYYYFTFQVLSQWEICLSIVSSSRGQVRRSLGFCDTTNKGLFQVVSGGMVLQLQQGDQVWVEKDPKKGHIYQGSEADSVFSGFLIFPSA
Sequence of complement component C1q (Sigma/C1740-1 mg) (human) (P02746 28-253 limits assumed, chain 2 of 3, further chain): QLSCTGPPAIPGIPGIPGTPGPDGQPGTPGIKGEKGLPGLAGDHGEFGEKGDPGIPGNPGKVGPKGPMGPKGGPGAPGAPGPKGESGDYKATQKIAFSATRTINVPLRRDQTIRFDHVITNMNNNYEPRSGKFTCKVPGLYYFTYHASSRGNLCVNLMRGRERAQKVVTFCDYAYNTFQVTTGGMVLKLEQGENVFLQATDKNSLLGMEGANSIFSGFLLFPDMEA
Sequence of complement component C1q (Sigma/C1740-1 mg) (human) (P02747 29-245 limits assumed, chain 3 of 3, further chain): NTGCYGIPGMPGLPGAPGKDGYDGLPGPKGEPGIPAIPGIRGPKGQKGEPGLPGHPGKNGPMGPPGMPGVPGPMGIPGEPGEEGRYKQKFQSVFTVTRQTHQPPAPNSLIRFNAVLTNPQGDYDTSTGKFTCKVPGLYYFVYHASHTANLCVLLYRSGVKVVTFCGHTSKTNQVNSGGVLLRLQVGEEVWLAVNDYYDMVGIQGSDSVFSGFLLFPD
Sequence of full-length ILT2 expressed on Jurkat cells (human) (Q8NHL6 24-650): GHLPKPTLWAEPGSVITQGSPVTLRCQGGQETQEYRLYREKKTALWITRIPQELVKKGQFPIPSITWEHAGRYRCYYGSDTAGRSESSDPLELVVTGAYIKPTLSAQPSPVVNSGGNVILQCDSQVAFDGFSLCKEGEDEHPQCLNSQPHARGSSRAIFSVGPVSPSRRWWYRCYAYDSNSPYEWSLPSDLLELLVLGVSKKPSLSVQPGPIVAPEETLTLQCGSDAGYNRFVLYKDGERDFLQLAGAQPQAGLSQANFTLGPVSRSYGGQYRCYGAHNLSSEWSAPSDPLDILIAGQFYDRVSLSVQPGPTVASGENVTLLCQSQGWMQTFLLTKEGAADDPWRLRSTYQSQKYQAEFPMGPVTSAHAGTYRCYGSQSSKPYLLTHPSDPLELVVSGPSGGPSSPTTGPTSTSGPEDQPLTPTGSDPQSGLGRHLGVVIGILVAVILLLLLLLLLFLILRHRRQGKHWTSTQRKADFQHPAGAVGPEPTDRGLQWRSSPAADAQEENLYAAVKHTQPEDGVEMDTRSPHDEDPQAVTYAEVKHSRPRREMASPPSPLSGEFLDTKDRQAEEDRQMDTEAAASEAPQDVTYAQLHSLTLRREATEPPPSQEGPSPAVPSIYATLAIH

Row | Substance | Kd [2] | Kd [3] | Kd [4] | other results
1 | nivolumab (Evidentric GmbH), an anti-PD-1 IgG4 antibody |  |  |  | Average AUC [1]: 0.52
2 | VMP55 (Novus, #NBP2-50475PE) (antibody) | 0.15 nM | 32 nM | 6 nM | 
3 | IgG4 isotype control (CrownBio/C00045-5) (antibody) |  |  |  | Average AUC [1]: 0.5
4 | isotype control (VRC01 IgG4) (antibody) |  |  |  | AUC [5]: 542; AUC [6]: 570
5 | adalimumab (Myonex), an anti-TNFα IgG1 antibody |  |  |  | EC50 (read off the curve) [7]: 3 µg/mL
6 | 292305 (R&D Systems, #MAB20171) (antibody) | 2.4 nM | 260 nM | 100 nM | 
7 | 4F9 (Biorad, #MCA2515F) (antibody) | 0.89 nM | 40 nM | 26 nM | 
8 | HP-F1 (Invitrogen, #16-5129-82) (antibody) | 3.6 nM | 7.2 nM | 15 nM | FcγRIIIa-NFAT luciferase signaling, Average AUC normalized to HP-F1 [8]: 100; FcγRIIIa-NFAT luciferase signaling, EC50 [8]: 32.8 µg/mL; IC50 [9]: 0.307 µg/mL

Further lines, with some results ahead:

Row | Kd [2] | Kd [3] | Kd [4] | Substance | other results
9 | 0.24 nM | 0.81 nM | < 0.1 nM | 238145 (Abcam, #EPR22861-6) (antibody) | 
10 | 1.7 nM | 5 nM | 13 nM | 1Q-G2 (Creative, #DCABH-4494) (antibody) | 
